Literature values, collected in paper PMC11076503.

Molecular target: Mpro (Severe acute respiratory syndrome coronavirus 2) (UniProt P0DTD1)

Mpro (from UniProt P0DTD1)
Kd: 7 µM
